Laboratory results taken from patent US20260216058A1, “TRACE ELEMENT COMPOSITION, PREPARATION METHOD THEREFOR, AND USE THEREOF” (BEIJING ZANGWEIXINKANG PHARMACEUTICAL R&D CO., LTD., priority 2023, published 2026).

Test system: Hartley guinea pigs
Test: Systemic active allergic reaction test in guinea pigs
Type: in vivo, guinea pig
Conditions: 40 mg/mL
Excerpt: Systemic active allergic reaction test in guinea pigs: Hartley guinea pigs, SPF grade, source: Beijing Vital River Laboratory Animal Technology Co., Ltd., animal production license No.: SCXK (JING) 2016-0011, test animal certification No.: No. 110011201110221326, issuer: Beijing Science and Technology Commission, age at the start of administration: 5-6 weeks.
Guinea pigs were sensitized by intraperitoneal injection of the sample of Example 2 and Addaven every other day for three consecutive days. In the allergic reaction test, 0.9% sodium chloride injection (Lot No.: 6B20060706, Shandong Qidu Pharmaceutical Co., Ltd.) was selected as the compatibility solution. Test sample low-dose group was administered with the clinically intended concentration of the test sample solution, and test sample high-dose group was administered with twice the concentration of the test sample solution. The administration volume was 0.5 mL/animal for each group. On the 14th and 21st days after the last sensitization, twice the sensitization dose of the product was intravenously injected for irritation, respectively.
Negative control group: 0.9% sodium chloride injection; […]

**Q.** For bovine serum albumin, which allergic reactions (irritation on the 14th day after the last sensitization) is on record?
**A.** strongly positive to extremely strong positive

**Q.** What about the allergic reactions (irritation on the 21st day after the last sensitization) of the same substance?
**A.** strongly positive to extremely strong positive
